Measurements reported in the RNAGym collection of RNA variant scans (doi:10.1073/pnas.2313332121).

B1: TPR t1 (parent)
chain: GACCAAUCUGCCCUCAGAGCUCGAGAACAUCUUCGGAUGCAGAGGAGGCAGGCUUCGGUGGCGCGAUAGCGCCAACGUCCUCAACCUCCAAUGCAUCCCACCACAUGAUGAUGCCUGAAGAGCCUUGGUUUUUUG

Variants of: B1
Assay: polymerase ribozyme fitness, log enrichment relative to wild type (log ratio); higher = more active; in vitro selection for triplet polymerase activity
How it was run: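 Both subunits of a heterodimeric triplet polymerase ribozyme were given their own mutant library, built by PCR and transcribed. Each library was annealed with a biotinylated primer, the partner subunit and triplets, incubated frozen at −7 °C, and its extended constructs gel-excised, captured on streptavidin beads and amplified by RT-PCR, all in one round done in triplicate. Fitness is the logarithm of genotype enrichment relative to wild-type enrichment, with replicates averaged by inverse-variance weighting. That logarithm is base 2, and Illumina-sequenced genotypes needed ≥10 input reads and ≥1 read per output.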

| Variant | polymerase ribozyme fitness (log ratio) |
| --- | --- |
| GACCAAUCUGCCCUCAGAGCUCGAGAACAUCUUCGGGUGCAGUGGAGGCAGACUUCUGUGGCGCGAUAGCGCCAACGUCCUCAACCUCCAAUGCAUCUCACCACAUGAUGAUGCCUGAAGAGCCUUGGUUUUUUG [A37G A43U G52A G57U C98U] | -5.9 |
| GACCAAUCUACCCUCAGAGCUCGAGAACAUCUUCGGAUGCAGAGGAGGCAGGCUUCGGUGGCGCGAUAGCGCCAACGUCCUCAACCUGCAAUGCAUCCCACCACAUGAUGCUGCCUGAAGAGCCUUGGUUUUUUG [G10A C88G A111C] | -0.763 |
| GACCAAUCUGCCCUCAGAGCUCGAGAACGUCUUCGGAUGCAGAGGAGGCAGGCUUCGGUGGCGCGAUAGCGCCAACGUCCUCAACCUCCAAUGCAUCCCACCACAUGAUGAUGCCUGUAGAGCCUUGGUUUUUUG [A29G A118U] | -0.684 |
| GACCUAUCUGCCCUCAGAGCUCGAGAACAUCUUCGGAUGCAGAGGAGGCAGGCUUCGGUGGCGCGAUAGCGCCAACGUCCUCAACCUCCAAUGCAUCCCACCACAUGAUGAAGCCUGUAGAGCCCUGGUUUUUUG [A5U U112A A118U U125C] | 0.369 |
| GACCAAUCUGCCCUCAGAGCUCGAGAACUUCUUCGGAUGCAGAGGAGGCAGGACUCGGUGGCGCGAUAGCGCCAAUGUCCUCAAACUCCAAUGCAUCCCACCACAUGAUGAUGCCUGAAGAGCCUUGGUUCUUUG [A29U C53A U54C C76U C85A U131C] | -3.17 |
| GACCAAUCUGCCCUCAGAGCUCGAGAACAUCUUCGGAUGCCGAGGAGGCAGGCUUCGGUGGCGCGAUAGCGCCAACGUCCUCAACCUCCAAUGCAUCCCACCACAUGAUGAUGCCUCAAGCGCCUUGGUUUUUUG [A41C G117C A121C] | -6.19 |
| GACCAAUCUGCCCUCAGAGCUCGAGAACAUCUUCGGAUGCAGAGGAGGCAGGCUUCGAUGGCGCGAUAGCGCCAACGUCCACAACCUCCAAUGCAUCCCACCACAUGAUGAUGCCUGAAGAGCCUUGGUUUUUUG [G58A U81A] | -0.982 |
| GACCAAUCUGCCCUCAGAGCUCGAGAGCAUCUUCGGAUGCAGAGGUGGCAGGCUUCGGUGGCGCGAUAGCGCCAACUACCUCAACCUCCAAUGCAUCCCACCACAUGAUGAUGCCUGAAGAGCCUUGGUUUUUUG [A27G A46U G77U U78A] | -3.31 |
| GACCAAUCUGCCCUCAGAGCUCGAGAACAUCUUCGGAUGCAGAGGAGGCAGGCUUCGGUGGCGCGAUAGAGCCAACGUCCACAACCUCCAAUACAUCCCACCACAUGAUGAUGCCUGAAGAGCCUUGGUUUUUUG [C70A U81A G93A] | -3.44 |
| GACCAAUCUGCCCUCAGAGCUCGAGAACAUCUUCGGAUGCAGAGGAGGCAGGCUUUGGUGGCCCGAUAGCGCCAACGUCCUCAACCUCCAAUGCAUCCCACCACAUGAUAAUGCCUGAAGAGCCUUGGUUUUUUG [C56U G63C G110A] | -4.56 |
| GACCAAUCUGCCCUCAGAGCUCGAGAACAUCUUCGGAUGCAGAGUAGGCAGGCUUCGGUGGCGCGAUAGCGCCAACGUCCUAAACCUCCAAUGCAUCCCACUACAUGAUGAUGCCUGAAGAACCUUGGUUUUUUG [G45U C82A C102U G122A] | -3.36 |
| GACCGAUCUGCCCUCAGAGCUCGAGAACAUCUUCGGAUGCAGAGGAGGCAGGCUUCGGUGGCGCGAUAGCGCCAACGUCCUCAACCUCCAAUGAAUCCCACCACAUGAUGAUGCCUGAAGAGCCUUGGGUUUUUG [A5G C94A U129G] | -1.49 |
| GACCAAUCUGCCCUCAGAGCUCGAGAACAUCUUCGGAUGCAGAGGAGGCAGGAUUCGGUGGCGCGAUAGCGCCUACGUCCUCAACCUCCAAUGCAUCCCACCACAUGAUGAUGCCUGAAGAGCCAUGGUUUUUUG [C53A A74U U125A] | -1.05 |
| GACCAAUCUGUCCUCAGAGCUCGAGAACAUCUUCGGAUGCAGAGGAGGCCGGCUUCGGUUGCGCGAUAGCGCCAACAUCCUCAACCUCCAAUGCAUCCCACCACAUGAUGAUGCCUGAAGAACCUUGGUUUUUUG [C11U A50C G60U G77A G122A] | 0.303 |
| GACCAAUCUGCCAUCAGAGCUCGAGAACAUCUUCGGACGCAGAGGAGGGAGGCUUCGGUGUCGCGAUAGCGCCAACGUCCUCAACCUCCAAUGCAUCCCACCACAGGAUGAUGCGUGAAGAGCCUUGGUUUUUUC [C13A U38C C49G G61U U106G C115G G135C] | -6 |
| GACCAAUAUGCCCUCAGAGCUCGAGAACAUCUUCGGAUGCAGAGGAGGCAGGCUUCGGUGGCUCGAUAGCGCCAACCUCCUCAACCUCCAAUGCAUCCCACCACAUGAUGAUGCCUCAAGAGCCUUGGUUUUUUG [C8A G63U G77C G117C] | -4.17 |
| GACCAAUCGGCCCUCAGAGCUCGAGAACUUCUUCGGAUCCAGAGGAGGCAGGCUUCGGUGGCGCGAUAGCGCCAACGUCCUCAACCUCCAAUGCAUCCCACCACAUGAUGAUGCCUGAAGAGCCUUGGUUUUUUG [U9G A29U G39C] | -3.86 |
| GACCAAUCUGCCCUCAGAGCUAGAGAACAUCUUCGGAUGCAGAGGAGGCAGGCUUCCGUGGCGCGAUAGCGCCAACGUCCUCAACCUCCAAUGCAUCCCACAACAUGAUGAUGCCUGAAGAGCCUUGGUUUUUUG [C22A G57C C102A] | -5.72 |
| GACCAAUCUGCCCUCAGAGCUCGAGAACAUCUUCGGAUGCAGAGGAGGCAGGCUUCGGUGGCCCGAUAGCGCCAACGUCCUCAACCUCCAAUGCAUCCCACCACAUGAUGAUGCCUGAAGAGCCUUGGUUUUUUG [G63C] | -0.722 |
| GACCAAUCUGCCCUCAGAGCUCGAGAACAUCUUCGGAUGAAGAGGAGGCAGGCUUCGGUGGCGCGAUACCGCCAACGUCCUCAACCUCCAAUGCAUCCCACCACAUGAUGAUGCCUGAAGAGCCUUGGUUUUUUG [C40A G69C] | -2.42 |
| GACCAAUCUGCCCUCAGAGCUCGAGAAAAUCUUCGGAUGCAGAGGAGGCAGGCUUCGGUGGCGCGAUAGGGCCAACGUGCUCAACCUCCAAUGCAUCCCACCACAUGAUGAUGCCUGAAGAGCCUUGGUCUUUUG [C28A C70G C79G U130C] | -6.51 |

| Variant | polymerase ribozyme fitness (log ratio) |
| --- | --- |
| GACCAAUCUGCCCUCAGAGCUCGAGAACAUCUUCGGAUGCAGAGGAGGCAGGCUUCGGUGGCGUGAUAGCGCCAACGUCCUCCACCUCCAAUGCAUCCCACCACAUGAUGAUGCCUGAAGAGCCUUGGUUUUUUG [C64U A83C] | -0.261 |
| GACCAAUCUGCCCUCAGAGCUCGAGAACAUCGUCGGAUGCAGAGGAGGCAGGCUUCGGUGGCGCGAUAGCGCCAACGUCCUUAACCUCCAAUGCAUCCCACCACAUGAUGAUGCCUGAAGCGCCUUGGUUUUUUG [U32G C82U A121C] | -6.01 |
| GACCAAUCUGCCCUCAGAGCUCGAGAACAUCUUCGGAUGCAGAGGAGGCCGGCUUCGGUGGCGCGAUAGCGCCAACGUCCUCAACCUCCAAUGCAUCCCCCCAUAUGAUGAUGCCUGAACAGCCUUUGUUUUUUG [A50C A100C C104U G120C G127U] | 0.167 |
| GACGAAUCUGCCCUCAGAGCUCGAGAACAUCUUCGGAUGCAGAGGAGGCAGGCUUCGGUGGCGCGAUAGCGCCAACGGCUUCAACCUCCAAUGCAUCCCACCACAUGAUGAUGCCUGAAGAGCCUUGGUUUUUUG [C4G U78G C80U] | -1.48 |
| GACCAAUCUGCCCUCAGAGCUCGAGAACAUCUUCGGAUGCAGAGGAGGCAGGCUUCGGUGUCGCGAUAGUGCCAACGUCCUCAACCUCCAAUGCAUCCCACCACAUGAUGAUGCCUGAAGAGCCUUGGUUUUUUG [G61U C70U] | -2.03 |
| GACCAAUCUGCCCUCAGAGCUCGAGAACAUCUUCGGAUGCAGAGGAGGCAGGCUUCGGUGGCGCGAUAGCGCCAACGUCCUCAACCUCCAAUGCAUCCCACCAUAUGAUGAUGCCUAAAGAGCCUUGGUUUUUUG [C104U G117A] | -0.723 |
| GACCAAUCUGCCCUCAGAGCUCGAGAACAUCUUCGGAUGCAGAGGAGGCAGGCUUCGGUGGCGCGAUAGCGCCCACGUCCUCAACCUCCAAUGCAUCCCACCACAUGAUCAUGCCUGAAGAGCCUUGGUUUUUUG [A74C G110C] | -4.36 |
| GACCAAUCUGCGCUUAGAGCUCGAGAACAUCUUCGGAUGCAGAGGAGGCAGGCUUCGGUGACGCGAUAGCGCCAACGUCCUCAACCUCCAAUGCAUCCCACCACAUGAUGAUGCCUGAAGAGCCUUGGUUUUUUG [C12G C15U G61A] | -0.982 |
| GACCAAUCUGCCCUCAGAGCUCGAGAACAUCUUCGGAUGCAGAGGAGGCAGGCUUCGGUGGCGCGAUAGAGCCAACGUCCUCAACCUAUAAUGCAUCCCACCACAUGAUGAUGCCUGAAGAGCCUUGGUUUUUUG [C70A C88A C89U] | -5.58 |
| GACCAAUCUGCCCUCAGAGCUCGAGAACAUCUUCGGAUGCAGAGGAGGCAGGCUUCGGUGUCGCGAUAGCGCCAACGUCCUCAACAUCCAAUGCAUCCCACCACAUGAUGAUGCUUGAAGAGCCUUGGUUUUUUG [G61U C86A C115U] | -1.4 |
| GACCAAUCUGCCCUCAGAGCUCGAGAUCAUCUUCGGAUGCAGAGGAGGCAGGCCUCGGUGGCGCGAUAGCUCCAACGUCCUCAACCUCCAAUGCAUCACACCACAUGAUGAUGCCUGAAGAGCCUUGGUUUCUUG [A27U U54C G71U C98A U132C] | -6.73 |
| GACCAAUCUGGCCUCAGAACUCGAGAACAUCUUCGGAUGCAGAGGAGGCAGGUUUCGGUGGCGCGAUAGCGCCAACGUCCUCAACCUCAAAUGCAUCCCACCACAUGAUGAUGCCUGAAGAGCCUUGGUUUUUUG [C11G G19A C53U C89A] | -2.96 |
| GACCAAUCUGCCCUCAGAGCUCGAGAACAUCUUCGGAUGCAGAGGAGGCAGGCUUCGGUGGCGCGAUAGCGCCAACGUCCACAACCUCCAAUGUAUCCCACCACAUGAUGAUGCCUAAAGAGGCUUGGUUUUUUG [U81A C94U G117A C123G] | -5.66 |
| GACCAAUCUGCCCUCAGAGCUCGAGAACAUCUUCGGAUGCAGAGGAGGCAGGCUUCGGUUGCGCGAUAGCGCCAACGUCCUCAACCUCCAAUGCAUCCCACCACAUGAUGAUGCCCGAAGAGCCUUGGUUUUUUG [G60U U116C] | 0.0833 |
| GACCAAUCUGCCCUCAGCGCUCGAGAACAUCUUCGGAUGCAGAGGAGGCAGACUUCGGUGGCGCGAUAGCGCCAACGUCCUCAACCUCCAAUGCAUCCCACCACAUGAUGAUGCCUGAAGAGCCUUGGUUUUUUG [A18C G52A] | -2.7 |
| GACCAAUCUGCCCUCAGAUCUCGAGAACAUCUUCGGAUGCAGAGGAGGCAGGCUUCGGUGGCGCGAUAGCGCCAACGUCCUAAACCUCCAAUGCAUCCCACCACAUGAUGAUGCCUGAAGAGCCUUGGUUUUUUG [G19U C82A] | -3.28 |
| GACCAAUCUGCCCUCAGAGCUCGAGAAUAUCUUCGGAUGCAGAGGAGGCUGGCUUCGGUGGCGCGAUAGCGCCAACGUCCUCAACCUCCAAUGCAUCCCACCACAUGAUGAUGCCUGAAGAGUCUUGGUUUUUUG [C28U A50U C123U] | -3.55 |
| GAUCAUUCUGCCCUCAGAGCUCGAGAACAUCUUCGGAUGCAGAGGAGGCAGGCUUCAGUGGCGCGAUAGCGCCAACGUCCUCAACCUCCAAUGCAUCCCACCACAUGAUGAUGCCUGAACAGCCUUGGUUUUUUG [C3U A6U G57A G120C] | 0.153 |
| GACCAAGCUGCCCUCAGAGCUCGAGAACAUCUUCGGAUGCUGAGGAGGCAGGCUUCGGUGGCGCGAUAGCGCCAACGUCCUCAACCUCCAAUGCAUCCCACCACAUGAUGAUGCCUGAAGAGCCUUGGUUUUUUG [U7G A41U] | -0.368 |
| GACCAAUCUGCCUUCAGAGCUCGAGAACAUCUUCGGAUGCAGAGGAGGCAGGCUUCGGUGGCGCGAUAUCGCCAACGUCCUCAACCUCCAAUGUAUCCCACCACAUGAUGAUGCCUGAAGAGCCUUGGUUUUUUG [C13U G69U C94U] | 0.248 |
| GACCAAUCUGCCCUCAGAGCUCGAGAACAUCUUCGGAUGCAGAGGAGGCAGGCUUCGGUGGCGCGAUAGCGCCAACGUCCUCAACCUCCAAUGCAUCCCCCCACAUGAUGAGGCCUGAAGAGCCUUGGUUUUUUG [A100C U112G] | -0.251 |
